Measured values from PMC8593141.

Molecular target: mouse Kv4.2 channel with GFP fused to the C-terminus (Kv4.2g) (mouse) (UniProt Q9Z0V2)
Assay: co-IP; anti-GFP IP (Pierce Classic Magnetic IP/Co-IP kit, overnight 4°C, lysis buffer with 20 mM NEM and protease inhibitors) from lysates (0.5 mg protein) of HEK cells expressing Kv4.2g + HA-KChIP2a + HA-DPP10c, with or without co-transfected SUMO2 + Ubc9; blot for α-adaptin, stripped and re-probed for Kv4.2g; OD α-adaptin ÷ OD Kv4.2g

UniProt Q9Z0V2, sequence (Q9Z0V2 whole entry, the tested form may be a part): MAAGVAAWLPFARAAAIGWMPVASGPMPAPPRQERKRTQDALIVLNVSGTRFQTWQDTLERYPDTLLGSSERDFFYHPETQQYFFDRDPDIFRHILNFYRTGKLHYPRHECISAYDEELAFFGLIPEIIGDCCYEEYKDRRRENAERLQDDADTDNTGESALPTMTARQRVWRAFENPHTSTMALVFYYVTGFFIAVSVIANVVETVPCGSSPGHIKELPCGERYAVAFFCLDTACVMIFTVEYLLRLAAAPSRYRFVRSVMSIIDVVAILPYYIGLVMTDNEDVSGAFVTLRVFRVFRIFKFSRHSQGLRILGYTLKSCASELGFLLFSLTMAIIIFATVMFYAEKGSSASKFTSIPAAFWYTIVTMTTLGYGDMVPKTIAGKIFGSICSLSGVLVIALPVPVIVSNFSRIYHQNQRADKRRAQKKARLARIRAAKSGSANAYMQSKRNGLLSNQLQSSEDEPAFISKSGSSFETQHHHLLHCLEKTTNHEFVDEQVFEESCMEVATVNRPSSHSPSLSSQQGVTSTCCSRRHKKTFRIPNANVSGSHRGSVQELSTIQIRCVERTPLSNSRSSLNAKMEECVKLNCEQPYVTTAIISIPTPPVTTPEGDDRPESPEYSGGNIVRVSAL

OD α-adaptin ÷ OD Kv4.2g in the anti-GFP IP (control, without SUMO2 + Ubc9): 0.02
OD α-adaptin ÷ OD Kv4.2g in the anti-GFP IP (with co-expressed SUMO2 + Ubc9): 0.02
Substance: α-adaptin subunit of adaptor protein 2 complex (AP2) (from UniProt O95782 1-977) (natural protein)
